These results are taken from PMC3796444 (PLoS ONE, 2013).

The labels stand for the following.
T1: alanine:glyoxylate aminotransferase (AGT), AGT WT (major allele) (Homo sapiens, UniProt P21549)
T1 construct: gene AGXT; His-tagged full-length AGT from pCOLDII, expressed in E. coli BL21, IMAC and SEC; about 90 kDa dimer
T1 sequence (P21549 1-392): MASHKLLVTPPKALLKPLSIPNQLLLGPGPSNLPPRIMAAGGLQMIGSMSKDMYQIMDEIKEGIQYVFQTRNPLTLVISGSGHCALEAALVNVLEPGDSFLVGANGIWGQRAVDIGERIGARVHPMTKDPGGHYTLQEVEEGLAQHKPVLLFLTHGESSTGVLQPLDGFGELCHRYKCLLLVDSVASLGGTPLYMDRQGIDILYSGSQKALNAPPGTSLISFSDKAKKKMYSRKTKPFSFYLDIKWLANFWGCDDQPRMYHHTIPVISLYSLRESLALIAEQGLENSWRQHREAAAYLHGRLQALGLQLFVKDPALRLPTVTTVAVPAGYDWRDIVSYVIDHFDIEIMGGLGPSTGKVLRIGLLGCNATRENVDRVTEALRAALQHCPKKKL

B1: alanine:glyoxylate aminotransferase, wild type (major allele), recombinant His-tagged (enzyme, human)
chain: T1 sequence (P21549 1-392)
notes: alanine:glyoxylate aminotransferase (AGT), human, major allele; also called AGT WT; WT; source: E. coli BL21 (pCOLDII), purified (IMAC, SEC)
B2: alanine:glyoxylate aminotransferase minor allele (p.P11L/I340M), recombinant His-tagged (enzyme, human, UniProt P21549 1-392, looked up)
chain: T1 sequence (P21549 1-392) with P11L, I340M
notes: alanine:glyoxylate aminotransferase (AGT), human, minor allele; also called AGT LM; LM; source: E. coli BL21 (pCOLDII), purified (IMAC, SEC)
B3: alanine:glyoxylate aminotransferase p.H83R on the minor allele, recombinant His-tagged (enzyme, human, UniProt P21549 1-392, looked up)
chain: T1 sequence (P21549 1-392) with P11L, H83R, I340M
notes: alanine:glyoxylate aminotransferase (AGT), human, PH1 mutation p.H83R in the minor allele; source: E. coli BL21 (pCOLDII), purified (IMAC, SEC)
B4: alanine:glyoxylate aminotransferase p.A295T on the minor allele, recombinant His-tagged (enzyme, human, UniProt P21549 1-392, looked up)
chain: T1 sequence (P21549 1-392) with P11L, A295T, I340M
notes: alanine:glyoxylate aminotransferase (AGT), human, rare variant p.A295T in the minor allele; source: E. coli BL21 (pCOLDII), purified (IMAC, SEC)
B5: alanine:glyoxylate aminotransferase p.G170R on the minor allele, recombinant His-tagged (enzyme, human, UniProt P21549 1-392, looked up)
chain: T1 sequence (P21549 1-392) with P11L, G170R, I340M
notes: alanine:glyoxylate aminotransferase (AGT), human, PH1 mutation p.G170R in the minor allele (p.P11L, p.G170R and p.I340M in cis); source: E. coli BL21 (pCOLDII), purified (IMAC, SEC)
B6: alanine:glyoxylate aminotransferase p.P11L, recombinant His-tagged (enzyme, human, UniProt P21549 1-392, looked up)
chain: T1 sequence (P21549 1-392) with P11L
notes: alanine:glyoxylate aminotransferase (AGT), human, polymorphic variant p.P11L; source: E. coli BL21 (pCOLDII), purified (IMAC, SEC)
B7: alanine:glyoxylate aminotransferase p.A368T on the minor allele, recombinant His-tagged (enzyme, human, UniProt P21549 1-392, looked up)
chain: T1 sequence (P21549 1-392) with P11L, I340M, A368T
notes: alanine:glyoxylate aminotransferase (AGT), human, PH1 mutation p.A368T in the minor allele; source: E. coli BL21 (pCOLDII), purified (IMAC, SEC)
B8: alanine:glyoxylate aminotransferase p.F152I on the minor allele, recombinant His-tagged (enzyme, human, UniProt P21549 1-392, looked up)
chain: T1 sequence (P21549 1-392) with P11L, F152I, I340M
notes: alanine:glyoxylate aminotransferase (AGT), human, PH1 mutation p.F152I in the minor allele; source: E. coli BL21 (pCOLDII), purified (IMAC, SEC)
B9: alanine:glyoxylate aminotransferase p.P319L on the minor allele, recombinant His-tagged (enzyme, human, UniProt P21549 1-392, looked up)
chain: T1 sequence (P21549 1-392) with P11L, P319L, I340M
notes: alanine:glyoxylate aminotransferase (AGT), human, PH1 mutation p.P319L in the minor allele; source: E. coli BL21 (pCOLDII), purified (IMAC, SEC)
B10: alanine:glyoxylate aminotransferase p.R197Q on the minor allele, recombinant His-tagged (enzyme, human, UniProt P21549 1-392, looked up)
chain: T1 sequence (P21549 1-392) with P11L, R197Q, I340M
notes: alanine:glyoxylate aminotransferase (AGT), human, rare variant p.R197Q in the minor allele; source: E. coli BL21 (pCOLDII), purified (IMAC, SEC)
B11: alanine:glyoxylate aminotransferase p.I244T on the minor allele, recombinant His-tagged (enzyme, human, UniProt P21549 1-392, looked up)
chain: T1 sequence (P21549 1-392) with P11L, I244T, I340M
notes: alanine:glyoxylate aminotransferase (AGT), human, PH1 mutation p.I244T in the minor allele (p.P11L, p.I244T and p.I340M in cis); source: E. coli BL21 (pCOLDII), purified (IMAC, SEC)
B12: alanine:glyoxylate aminotransferase p.I340M, recombinant His-tagged (enzyme, human)
chain: MASHKLLVTPPKALLKPLSIPNQLLLGPGPSNLPPRIMAAGGLQMIGSMSKDMYQIMDEIKEGIQYVFQTRNPLTLVISGSGHCALEAALVNVLEPGDSFLVGANGIWGQRAVDIGERIGARVHPMTKDPGGHYTLQEVEEGLAQHKPVLLFLTHGESSTGVLQPLDGFGELCHRYKCLLLVDSVASLGGTPLYMDRQGIDILYSGSQKALNAPPGTSLISFSDKAKKKMYSRKTKPFSFYLDIKWLANFWGCDDQPRMYHHTIPVISLYSLRESLALIAEQGLENSWRQHREAAAYLHGRLQALGLQLFVKDPALRLPTVTTVAVPAGYDWRDIVSYVMDHFDIEIMGGLGPSTGKVLRIGLLGCNATRENVDRVTEALRAAL
notes: alanine:glyoxylate aminotransferase (AGT), human, polymorphic variant p.I340M; Crystallised here (PDB 2YOB); source: E. coli BL21 (pCOLDII), purified (IMAC, SEC)

Substitutions are numbered along the chain they refer to. Names and notes keep the numbering of the source.

One series deals with T1, alanine:glyoxylate aminotransferase (AGT), AGT WT (major allele). Nature of the series: filtration ([…] kDa cut-off) and UV absorption of released PMP. It counts as binding. To be noted: holo-enzyme 36 µM monomer with L-Ala, 1 h, 25°C.
As for `Cc1ncc(COP(=O)(O)O)c(CN)c1O` [PMP], the “% PMP released” value is ~ 3%.

Substrate in another series: C[C@H](N)C(=O)O
The experiment in a line: LDH-coupled pyruvate assay, global double-displacement fit. It counts as biochemical, Homo sapiens. To be noted: glyoxylate 0-5 mM, 150 µM PLP, 0.1 M Na-phosphate pH 8, 25°C. An excerpt: (§1) LDH-coupled pyruvate assay, global double-displacement fit on alanine:glyoxylate aminotransferase (AGT), AGT WT (major allele)
Broadly, the Km is the concentration of substrate that gives half-maximal velocity. Take B1: the Km amounted to 19.5 ± 1.4 mM.
Same read-out and setting: for B2 the value was 19.8 ± 1.5 mM.
The same measure, in the same setting: for B3 the value was 42.4 ± 2.4 mM.

Substrate in another series: O=CC(=O)O
Described as above. It counts as biochemical, Homo sapiens. To be noted: L-alanine 0-100 mM, 150 µM PLP, 0.1 M Na-phosphate pH 8, 25°C.
From the text: as §1
For B1, the Km came out at 0.245 ± 0.029 mM.
On the same count and under the same terms, next, B3: 0.156 ± 0.019 mM.

Another series has as its target Hsc70 chaperones of the rabbit reticulocyte lysate (rabbit (endogenous in rabbit reticulocyte lysate)). Nature of the series: co-IP; AGT variants made with 35S-Met in rabbit reticulocyte lysate (TnT) at 30°C for 2 h, stopped with cycloheximide; immunoprecipitation with anti-Hsc70 antibodies; SDS-PAGE and fluorography.
Details: not given
As to “alanine:glyoxylate aminotransferase p.P11L, made in a cell-free system (from UniProt P21549 1-392) (enzyme)”, the fold increase in immunoprecipitated AGT compared to WT was determined as 4 fold.
The same measure, in the same setting: for “alanine:glyoxylate aminotransferase p.H83R on the minor allele, made in a cell-free system (from UniProt P21549 1-392) (enzyme)” the value was 4.8 fold.
As for “alanine:glyoxylate aminotransferase minor allele (p.P11L/I340M), made in a cell-free system (from UniProt P21549 1-392) (enzyme)”, the fold increase in immunoprecipitated AGT compared to WT stood at 4 fold.
On the same count and under the same terms, for “alanine:glyoxylate aminotransferase p.P319L on the minor allele, made in a cell-free system (from UniProt P21549 1-392) (enzyme)” the value was 7 fold.

Another series deals with the molecule itself. Nature of the series: SEC; purified recombinant AGT variants; single peak, elution volume of a ≈90 kDa dimer; data not shown.
Details: not given
As a reminder, the stoichiometry N is the number of molecules, sites or subunits per partner or assembly. Regarding B1, the “stoichiometry N” value is 2.
On the same count and under the same terms, next, B4: 2.
Same read-out and setting: next, B5: 2.
The same measure, in the same setting: for B6 the value was 2; for B7, 2; for B8, 2.
In the case of B9, the “stoichiometry N” value was determined as 2.
Same read-out and setting: for B10 the value was 2; for B11, 2.
Same read-out and setting: for B2 the value was 2; for B3, 2; for B12, 2.
